Assay results reported in FireProtDB (doi:10.1093/protein/14.12.967).
“And” between values parts separate entries of the source, which are not always exact repeats. Equal entries are not always repeated.

B1: Lysozyme C, milk isozyme, P81708 (parent)
chain: KIFSKCELARKLKSMGMDGFHGYSLANWVCMAEYESNFNTQAFNGRNSNGSSDYGIFQLNSKWWCKSNSHSSANACNIMCSKFLDDNIDDDIACAKRVVKDPNGMSAWVAWVKHCKGKDLSKYLASCNL

Variants of: B1
Settings: Canis lupus familiaris, pH 4.5, Thermal, DSC, sodium acetate 50 mM, reversible: yes, structure 1EL1, whole UniProt chain shown

For KIFSKCELARKLKSMGMDGFGGYSLANWVCMAEYESNFNTQAFNGRNSNGSSDYGIFQLNSKWWCKSNSHSSANACNIMCSKFLDDNIDDDIACAKRVVKDPNGMSAWVAWVKHCKGKDLSKYLASCNL, the “ddG of mutation (higher = less stable)” value (66.4 °C) was 0.48 kcal/mol, the “unfolding enthalpy (calorimetric)” value (66.4 °C) was 29.1 kcal/mol and the unfolding free energy (66.4 °C) was 1.67 kcal/mol. For the same variant, the “change of melting temperature, mutant - wild type (higher = more stable)” value (from here on “change of melting temperature, mutant”) (transition: 3) was -3.28 °C and the “unfolding enthalpy (calorimetric)” value (transition: 3) was 29.9 kcal/mol and 40.6 kcal/mol.

With KIFSKCELARKLKSMGMDGFHGYSLANWVCMAEYESNFNTQAFNGRNSNGSSDYGLFQLNSKWWCKSNSHSSANACNIMCSKFLDDNIDDDIACAKRVVKDPNGMSAWVAWVKHCKGKDLSKYLASCNL the “ddG of mutation (higher = less stable)” value (66.4 °C) was 0.24 kcal/mol, the “unfolding enthalpy (calorimetric)” value (66.4 °C) was 31.8 kcal/mol and the unfolding free energy (66.4 °C) was 1.91 kcal/mol. For the same variant, the “change of melting temperature, mutant” value (transition: 3) was -2.44 °C and the “unfolding enthalpy (calorimetric)” value (transition: 3) was 23.8 kcal/mol and 43.8 kcal/mol.

With KIFSKCELARKLKSMGMDGFHGYSLANWVCMAEYESNFNTQAFNGRNSNGSSDYGIFQLNSKWWCKSNSHSSANACNIMCSKFLDDNIDDDISCAKRVVKDPNGMSAWVAWVKHCKGKDLSKYLASCNL the “ddG of mutation (higher = less stable)” value (66.4 °C) was 0.26 kcal/mol, the “unfolding enthalpy (calorimetric)” value (66.4 °C) was 32 kcal/mol and the unfolding free energy (66.4 °C) was 1.89 kcal/mol. The “change of melting temperature, mutant” value (transition: 3) was -2.59 °C and the “unfolding enthalpy (calorimetric)” value (transition: 3) was 39.6 kcal/mol and 43.8 kcal/mol.

With KIFSKCELARKLKSMGMDGFHGYSLANWVCMAEYESNFNTQAFNGRNSNGSSDYGIFQLNSKWWCKSNSHSSANACNIMCSKFLDDNIDDDIACAKRVVKDPNGMSAWKAWVKHCKGKDLSKYLASCNL the “ddG of mutation (higher = less stable)” value (66.4 °C) was 0.43 kcal/mol, the “unfolding enthalpy (calorimetric)” value (66.4 °C) was 31.9 kcal/mol and the unfolding free energy (66.4 °C) was 1.72 kcal/mol. For the same variant, the “change of melting temperature, mutant” value (transition: 3) was -4.16 °C and the “unfolding enthalpy (calorimetric)” value (transition: 3) was 43.8 kcal/mol and 42.8 kcal/mol.
